Like-named read-outs stand apart in the source and are kept apart here.
T1: human VEGFA121 (human, UniProt P15692-9 27-147)
T1 sequence (looked up): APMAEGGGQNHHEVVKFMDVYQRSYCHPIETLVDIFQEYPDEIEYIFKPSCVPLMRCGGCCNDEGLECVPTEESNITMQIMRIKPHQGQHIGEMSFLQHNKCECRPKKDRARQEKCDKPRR


Columns and labels:
Human VEGFA165 [1] = target: T2, Human VEGFA165 (human, UniProt P15692-4 27-191); assay: ELISA, VEGFA coated 0.3 µg/mL, anti-His detection
T2 construct: treated as the same molecule; also called antigen VEGFA

Human VEGFA165 [2] = target: T2, Human VEGFA165; assay: phage ELISA, VEGFA coated 0.5 µg/mL, anti-M13(HRP)
Target sequence in this assay (P15692 other isoform, or with tags, fused parts or gaps limits assumed): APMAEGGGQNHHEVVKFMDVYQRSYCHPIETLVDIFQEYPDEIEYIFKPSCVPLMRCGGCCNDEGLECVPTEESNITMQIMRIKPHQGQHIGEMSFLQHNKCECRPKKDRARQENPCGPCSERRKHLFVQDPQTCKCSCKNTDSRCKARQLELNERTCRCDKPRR

Human VEGFA165 [3] = target: T2, Human VEGFA165; assay: competition ELISA on coated VEGFA, competitor VEGFR2-ECD-Fc 1 nM
Target sequence in this assay (P15692 other isoform, or with tags, fused parts or gaps limits assumed): as above

Human VEGFA165 [4] = target: T2, Human VEGFA165; assay: SPR, VEGFA165 on CM5
Human VEGFA165 [5] = target: T2, Human VEGFA165; assay: competition ELISA on coated VEGFA, competitor VEGFR2-ECD-Fc 2 nM
Target sequence in this assay (P15692 other isoform, or with tags, fused parts or gaps limits assumed): as above

[6] = target: 3% milk powder (negative control); assay: phage ELISA, 3% milk powder coated (negative control), anti-M13(HRP)
Human VEGFA165 [7] = target: T2, Human VEGFA165; assay: SPR Biacore 8K, VEGFA165 amine-coupled on CM5, nanobody as analyte, 1:1 model
human VEGFA121 = target: T1, human VEGFA121; assay: ELISA, human VEGFA121 coated 0.3 µg/mL, anti-His detection
Human VEGFA165 [8] = target: T2, Human VEGFA165; assay: ELISA, VEGFA coated 0.3 µg/mL, anti-His detection; remark: listed apart in the source
Target sequence in this assay (P15692 other isoform, or with tags, fused parts or gaps limits assumed): as above

Human VEGFA165 [9] = target: T2, Human VEGFA165; assay: SPR Biacore 8K, VEGFA165 amine-coupled on CM5, nanobody as analyte, 1:1 model; remark: listed apart in the source
Target sequence in this assay (P15692 other isoform, or with tags, fused parts or gaps limits assumed): as above

Human VEGFA165 [10] = target: T2, Human VEGFA165; assay: cell-based or functional assay
Target sequence in this assay (P15692 other isoform, or with tags, fused parts or gaps limits assumed): as above

Human VEGFA165 [11] = target: T2, Human VEGFA165; assay: phage ELISA, VEGFA coated 0.5 µg/mL, anti-M13(HRP)
Human VEGFA165 [12] = target: T2, Human VEGFA165; assay: SPR Biacore 8K, V1-SA1 amine-coupled on CM5, VEGFA165 as analyte, two state reaction model
Human VEGFA165 [13] = target: T2, Human VEGFA165; assay: SPR Biacore 8K, V1-SA1 amine-coupled on CM5, VEGFA165 as analyte, two state reaction model (kd1)
Human VEGFA165 [14] = target: T2, Human VEGFA165; assay: SPR Biacore 8K, V1-SA1 amine-coupled on CM5, VEGFA165 as analyte, two state reaction model (ka1)

Binder | OD450 (Human VEGFA165 [2]) | IC50 (Human VEGFA165 [3]) | Maximum inhibition rate (%) (Human VEGFA165 [3]) | OD450 [6] | OD450 (Human VEGFA165 [11]) | further results
linear tandem bivalent nanobody 2V15-9GS (VHH, no further tag added here) QLQLVESGGGSVQPGGSLRLSCEVSGRTFASYTMGWFRQAPGKEREFVVAISKGGYKYDSVSLEARFTISKDNTKNTVYLQMNSLKPEDTAVYYCAGTRAYGSSRLRLAETYEYWGQGTQVTVSSGGGGSGGGSQLQLVESGGGSVQPGGSLRLSCEVSGRTFASYTMGWFRQAPGKEREFVVAISKGGYKYDSVSLEARFTISKDNTKNTVYLQMNSLKPEDTAVYYCAGTRAYGSSRLRLAETYEYWGQGTQVTVSS | – | – | – | – | – | EC50 (Human VEGFA165 [1]): 0.25 nM
V25 (VHH) VHH: QLQLVESGGGSVQPGGSLRLSCEVSGRTFTSYTMGWFRRAPGKEREFVVAISKGGYKYDSVSLEARFTISKDNTKNTVYLQMNSLKPEDTAVYYCAGTRAYGSSRLKLAKTYEYWGQGTQVTVSS | – | – | – | 0.0354 OD450 | 1.29 OD450 | –
V18 (VHH) VHH: QLQLVESGGGSVQPGGSLRLSCEVSGRTFSSYTMGWFRQAPGKEREFVVAISKGGYKYNSVSLEARFTISKDNTKNTVYLQMNSLKPEDTAVYYCAGTRAYGSSRLRLADTYEYWGQGTQVTVSS | – | – | – | 0.0134 OD450 | 2.94 OD450 | –
V21 (VHH, Purified with C-terminal GGGGS-6×His) VHH: QLQLVESGGGSVQPGGSLRLSCEVSGRTFTSYTMGWFRQAPGKEREFVVAISKGGYKYNTVSLEARFTISKDNTKNTVYLQMNSLKPEDTAVYYCAGTRAYGSSRLRLAETYEYWGQGTQVTVSS | 2.15 OD450 | 4.62 nM | 88.3% | 0.0186 OD450 | – | –
V8 (VHH) VHH: QLQLVESGGGSVQPGGSLRLSCEVSGRTFSSYTMGWFRQAPGKEREFVVAISKGGYKYNTVSLEARFTISKDNTKNTVYLQMNSLKPEDTAVYYCAGTRAYGSSRLKLAETYEYWGQGTQVTVSS | – | – | – | 0.0236 OD450 | 0.924 OD450 | –
V22 (VHH) VHH: QLQLVESGGGSVQPGGSLRLSCEVSGRTFSSYTMGWFRQAPGKEREFVVAISKGGYKYDSVSLEARFTISKDNTKNTVYLQMNSLKPEDTAVYYCAATRAYGSSRLKLADTYEYWGQGTQVTVSS | – | – | – | 0.0353 OD450 | 1.64 OD450 | –
V1-SA1 (VHH, Humanized V1; also called humanized antibody V1-SA1; monovalent nanobody V1-SA1) VHH: EVQLVESGGGLVQPGGSLRLSCAVSGRTFSSYTMGWFRQAPGKEREFVVAISKGGYKYDSVSLEARFTISRDNAKNTVYLQMNSLRPEDTAVYYCAATRAYGSSRLRLADTYEYWGQGTLVTVSS | – | – | – | – | – | IC50 (Human VEGFA165 [5]): 22.5 nM; Maximum inhibition rate (%) (Human VEGFA165 [5]): 94.6%; Kd (Human VEGFA165 [12]): 4.38 nM; koff (Human VEGFA165 [13]): 0.0598 s⁻¹; kon (Human VEGFA165 [14]): 1.06e+06 M⁻¹ s⁻¹
V15 (VHH, Purified with C-terminal GGGGS-6×His; also called candidate antibody V15) VHH: QLQLVESGGGSVQPGGSLRLSCEVSGRTFASYTMGWFRQAPGKEREFVVAISKGGYKYDSVSLEARFTISKDNTKNTVYLQMNSLKPEDTAVYYCAGTRAYGSSRLRLAETYEYWGQGTQVTVSS | 1.87 OD450 | 3.89 nM | 94.6% | 0.0126 OD450 | – | fold difference of KD from the positive control BI-VEGF ab (Human VEGFA165 [4]): < 3 fold; IC50 (Human VEGFA165 [5]): 29.3 nM; Maximum inhibition rate (%) (Human VEGFA165 [5]): 71.6%; Kd (Human VEGFA165 [7]): 0.277 nM; koff (Human VEGFA165 [7]): 9.61e-05 s⁻¹; kon (Human VEGFA165 [7]): 347000 M⁻¹ s⁻¹; EC50 (Human VEGFA165 [8]): 0.89 nM; IC50 (pM), inhibition of VEGFA-stimulated HUVEC proliferation (CCK-8) (Human VEGFA165 [10]): 7120 pM; Maximum inhibition rate (%) of HUVEC proliferation (Human VEGFA165 [10]): 84.2%
V13 (VHH, Purified with C-terminal GGGGS-6×His; also called candidate antibody V13) VHH: QLQLVESGGGSVQPGGSLRLSCEVSGRTFTSYTMGWFRQAPGKEREFVVAISKGGYKYDAVSLEARFTISKDNTKNTVYLQMNSLKPEDTAVYYCAGTRAYGSSRLRLADTYEYWGQGTQVTVSS | 2.14 OD450 | – | – | 0.0144 OD450 | – | fold difference of KD from the positive control BI-VEGF ab (Human VEGFA165 [4]): < 3 fold; Kd (Human VEGFA165 [7]): 0.224 nM; koff (Human VEGFA165 [7]): 8.65e-05 s⁻¹; kon (Human VEGFA165 [7]): 386000 M⁻¹ s⁻¹; IC50 (pM), inhibition of VEGFA-stimulated HUVEC proliferation (CCK-8) (Human VEGFA165 [10]): 3940 pM; Maximum inhibition rate (%) of HUVEC proliferation (Human VEGFA165 [10]): 94.7%

The next lines start with results.

OD450 (Human VEGFA165 [2]) | IC50 (Human VEGFA165 [3]) | Maximum inhibition rate (%) (Human VEGFA165 [3]) | OD450 [6] | OD450 (Human VEGFA165 [11]) | Binder | further results
2.31 OD450 | 5.59 nM | 90.5% | 0.0377 OD450 | – | V1 (VHH, also called candidate antibody V1; antibody V1) VHH: QLQLVESGGGSVQPGGSLRLSCEVSGRTFSSYTMGWFRQAPGKEREFVVAISKGGYKYDSVSLEARFTISKDNTKNTVYLQMNSLKPEDTAVYYCAATRAYGSSRLRLADTYEYWGQGTQVTVSS | fold difference of KD from the positive control BI-VEGF ab (Human VEGFA165 [4]): < 3 fold; IC50 (Human VEGFA165 [5]): 26.4 nM; Maximum inhibition rate (%) (Human VEGFA165 [5]): 95%; Kd (Human VEGFA165 [7]): 0.247 nM; koff (Human VEGFA165 [7]): 0.000101 s⁻¹; kon (Human VEGFA165 [7]): 409000 M⁻¹ s⁻¹; EC50 (human VEGFA121): 1.27 nM; EC50 (Human VEGFA165 [8]): 0.53 nM; Kd (Human VEGFA165 [9]): 0.247 nM; koff (Human VEGFA165 [9]): 0.000101 s⁻¹; kon (Human VEGFA165 [9]): 409000 M⁻¹ s⁻¹; IC50 (pM), inhibition of VEGFA-stimulated HUVEC proliferation (CCK-8) (Human VEGFA165 [10]): 2690 pM; Maximum inhibition rate (%) of HUVEC proliferation (Human VEGFA165 [10]): 103%
– | – | – | 0.0273 OD450 | 2.47 OD450 | V19 (VHH) VHH: QLQLVESGGGSVQPGGSLRLSCEVSGRTFSSYTMGWFRQAPGKEREFVVAISKGGYKYNSVSLEARFTISKDNTKNTVYLQMNSLKPEDTAVYYCAATRAYGSSRLKLANTYEYWGQGTQVTVSS | –
– | – | – | 0.0473 OD450 | 1.36 OD450 | V6 (VHH) VHH: QLQLVESGGGSVQPGGSLRLSCEVSGRTFSSYTMGWFRQAPGKEREFVVAISKGGYKYDTVSLEARFTISKDNTKNTVYLQMNSLKPEDTAVYYCAGTRAYGSSRLKLADTYEYWGQGTQVTVSS | –
2.03 OD450 | 4.58 nM | 94.9% | 0.0252 OD450 | – | V14 (VHH, Purified with C-terminal GGGGS-6×His) VHH: QLQLVESGGGSVQPGGSLRLSCEVSGRTFTSYTMGWFRQAPGKEREFVVAISKGGYKYNTVSLEARFTISKDNTKNTVYLQMNSLKPEDTAVYYCAGTRAYGSSRLRLANTYEYWGQGTQVTVSS | –
3.47 OD450 | 16.3 nM | 80.4% | 0.0403 OD450 | – | V17 (VHH, Purified with C-terminal GGGGS-6×His) VHH: QLQLVESGGGSVQPGGSLRLSCEVSGRTFSSYTMGWFRQAPGKEREFVVAISKGGYKYDTVSLEARFTISKDNTKNTVYLQMNSLKPEDTAVYYCAATRAYGSSRLRLAKTYEYWGQGTQVTVSS | –
